From patent US20240287172A1 (SCIRHOM, published 2024) come the findings set out here.

Residue numbers refer to the chain shown, from its start.

The chains are these.
T1: hiR2-FL-S537E-T7 (human, UniProt Q6PJF5 1-856)
T1 sequence: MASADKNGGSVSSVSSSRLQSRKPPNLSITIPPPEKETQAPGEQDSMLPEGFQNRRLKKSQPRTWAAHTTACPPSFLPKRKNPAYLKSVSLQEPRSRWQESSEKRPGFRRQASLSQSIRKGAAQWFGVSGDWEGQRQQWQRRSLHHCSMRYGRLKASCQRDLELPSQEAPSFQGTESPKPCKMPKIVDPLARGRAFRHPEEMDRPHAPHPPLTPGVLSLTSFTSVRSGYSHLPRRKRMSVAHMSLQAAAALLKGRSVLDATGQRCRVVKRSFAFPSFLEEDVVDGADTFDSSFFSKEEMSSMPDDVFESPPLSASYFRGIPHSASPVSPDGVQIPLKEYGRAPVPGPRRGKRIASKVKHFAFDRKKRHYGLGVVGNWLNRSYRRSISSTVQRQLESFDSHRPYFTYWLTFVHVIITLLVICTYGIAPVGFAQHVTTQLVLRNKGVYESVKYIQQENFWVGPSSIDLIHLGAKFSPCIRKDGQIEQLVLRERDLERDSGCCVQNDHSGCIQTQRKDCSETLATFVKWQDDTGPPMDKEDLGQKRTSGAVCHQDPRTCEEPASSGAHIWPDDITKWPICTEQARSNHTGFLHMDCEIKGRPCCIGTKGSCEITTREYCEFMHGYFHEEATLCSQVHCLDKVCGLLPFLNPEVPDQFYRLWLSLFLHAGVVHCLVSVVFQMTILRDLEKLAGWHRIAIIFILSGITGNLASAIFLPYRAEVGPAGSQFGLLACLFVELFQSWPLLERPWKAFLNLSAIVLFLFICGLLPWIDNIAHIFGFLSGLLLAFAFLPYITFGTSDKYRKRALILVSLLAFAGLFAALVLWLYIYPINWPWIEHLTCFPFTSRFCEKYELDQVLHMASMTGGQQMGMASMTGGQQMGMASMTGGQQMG

B1: antibody 34 (antibody, V domains shown)
VH: QVTLKESGPGILQPSQTLSLTCSFSGFSLSTFSLGVGWIRQSSGKGLEWLAHIWWDDEKYYNPALKSRLTISKDTSKNQVFLKIANVDAADTATYYCARAYYSKSYYALDYWGQGTSVTVSS
VL: DIQMTQSPSSLSASLGERVSLTCRASQEISGYLSWLQQKPDGTIKRLIYAASTLDSGVPKRFSGSRSGSDYSLAISSLESEDFADYYCLQYANFPFTFGSGTKLEIK
notes: mouse IgG, kappa light chain; also called clone #34; purified antibody 34
B2: antibody 5 (antibody, V domains shown)
VH: QVTLKESGPGILQPSQTLSLTCSFSGFSLSTFGMGVGWIRQPSGKGLEWLAHIWWDDEKYYNSALKSRLTISKATSKNQAFLKIANVDTADTATYYCARISNYGSNYWYFNVWGTGTTVTVSS
VL: QVVLTQSPALMSASPGEKVTMTCSAGSSVSCMYWYQQKPGSSPRVLIYDTSNLASGVPARFTGSGSGTSYSLTISRMEAEDAASYYCQQWNSYPLTFGAGTKLELK
notes: mouse IgG, kappa light chain; also called clone #5; purified antibody 5
B3: antibody 42 (antibody, V domains shown)
VH: B2 VH with F24L, M34R, S63P, A74D, A80V, K83R, S101Q, N111D
VL: LIVLTQSPAIMSASPGEKVTMTCGATSRISYMFWYQQKPGSSPRVLIYDTSNLASGVPVRFSGSGSGTSYSLTISRVEAEDVATYYCQQWNSYPLTFGAGTKLELK
notes: mouse IgG, kappa light chain; also called clone #42; purified antibody 42
B4: antibody 43 (antibody, V domains shown)
VH: B2 VH with T3A, P42S, H52N, E58D, S63P, A74D, T75A, S101G, N111D
VL: B3 VL with L1Q, K18R, G24S, T26N, F33Y, V45L, V77M, V82A, Y86N, N91S
notes: mouse IgG, kappa light chain; also called clone #43; purified antibody 43
B5: antibody 44 (antibody, V domains shown)
VH: B2 VH with G44E, E58D, S63P, A74D, A80I, A85T, D91E, A98S, S101G, N111D
VL: QIVLTQSPAVMSASPGEKVTMTCTASSSVYYMYWYQQTPGSSPRLLIYDTSNLASGVPVRFSGSGSGTSYSLTISRMEAEDAATYYCQQWNTYPLTFGAGTKLELK
notes: mouse IgG, kappa light chain; also called clone #44; purified antibody 44
B6: antibody 22 (antibody, V domains shown)
VH: B2 VH with A80V
VL: B2 VL with C31Y, S84T
notes: mouse IgG, kappa light chain; also called clone #22; purified antibody 22

The target in the assay is T1, hiR2-FL-S537E-T7. Kind of assay: FACS, MEF-DKO cells, 3 µg/ml.
For the molecule B1, the “loss of binding vs wild type” value was no less than 95%.
For the molecule B2, the “loss of binding vs wild type” value is no less than 95%.
As to B3, the “loss of binding vs wild type” value was no less than 60%.
With B4 the figure was no less than 60%; with B5, no less than 60%; with B6, no less than 60%.
